Measured values taken from patent US20160200815A1 (JOUNCE THERAPEUTICS, published 2016).

B1: mAb22 (antibody, V domains shown)
VH: EVQLVESGGDLVKPGGSLKLSCAASGFTFSNHGMSWVRQTPDKRLEWVATISSGGSNTYFPDSVKGRFTISRDNVKNSLYLQMSSLKSEDTAMYYCARHGTSMIKEWFAYWGQGTLVTVSA
VL: DIVMTQSPVTLSVTPGDRVSLSCRASQSIGDYLHWYQQKSHESPRLLIKYASQSISGIPSRFSGSGSGSDFTLNINSVEPEDVGVYYCQHSHSFPPTFGGGTRLEIK
notes: Mouse hybridoma antibody
B2: mAb48 (antibody, V domains shown)
VH: QIQLQQSGPELVTPGTSVKISCKASGYTFTDYYINWVKQRPGQGLEWIGWIYPGSGNTKYNEKFKGKATLTVDTSSSIAYMHLSSLTSEDSAVYFCAGDRFDYWGQGTTLTVSS
VL: QIVLTQSPAIMSASPGEKVTLTCSASSGVSSSYLYWYQQKPGSSPKLWIYSTSNLASGVPARFSGSGSGTSYSLTISNMETEDAASYFCHQWSNSPYTFGGGTKLEIK
notes: Mouse hybridoma antibody
B3: mAb58 (antibody, V domains shown)
VH: QIQLVQSGPELKKPGETVKISCKASGYTFTTYGMSWVKQAPGKGLKLMGWINTYSGAPTYADDFKGRFAFSLETSASAAYLQINNLKNEDTATYFCARKPPHYYVNSFDYWGQGTTLTVSS
VL: DIVMTQSPATLSVTPGDRVSLSCRASQSISDYLHWYQQKSHESPRLLIKYASQSISGIPSRFSGSGSGSDFTLSINSVEPEDVGVYYCQNGHSFPYTFGGGTKLEIK
B4: mAb91 (antibody, V domains shown)
VH: DVQFQESGPGLVKPSQSLSLTCSVTGYSITSGYYWNWIRQFPGNKLEWMGYISYDGSNNYNPSLKNRISITRDTSKNQFFLKLNSVTTEDTATYYCGRDGPYYYGSSYGYFDVWGTGTTVTVSS
VL: DIVMTQAESSVPVTPGESVSISCRSSKSLLHSNGNTYLYWFLQRPGQSPQLLIHRMSNLASGVPDRFSGSGSGTAFTLRISRVEAEDMGVYYCMQHLEYPCTFGGGTKLEIK
notes: Mouse hybridoma antibody
B5: mAb15 (antibody, V domains shown)
VH: QVQLKESGPGLVAPSQSLSITCTVSGFSLTGYGVTWVRQPPGKGLEWLGMIWGDGNTDYNSGLKSRLNISKDNSKSQVFLKMNSLQTDDTARYYCARSYYYGPPDYWGQGTTLTVSS
VL: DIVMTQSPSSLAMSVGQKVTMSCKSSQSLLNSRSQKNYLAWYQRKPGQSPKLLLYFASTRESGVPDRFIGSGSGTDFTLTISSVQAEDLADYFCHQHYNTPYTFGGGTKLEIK
notes: also called JTx mAb 15; TIM-3 mAb15

What was measured:
Test in all cases: ELISA, construct coated on plate
hTIM3-Fc WT = molecular target: T1, hTIM3-Fc WT (human)
T1 construct: also called hTIM-3-hFc

hTIM3-Fc murine CC′ loop = molecular target: T2, hTIM3-Fc murine CC′ loop (human, CC′ loop replaced by mouse TIM-3)
T2 construct: Whole construct: chimeric ECD, linker and human IgG1 Fc; also called hTIM3-Fc CC′ loop chimera

hTIM3-Fc murine BC loop = molecular target: T3, hTIM3-Fc murine BC loop (human, BC loop replaced by mouse TIM-3)
T3 construct: Whole construct: chimeric ECD, linker and human IgG1 Fc; also called hTIM3-Fc BC loop chimera

hTIM3-Fc murine FG loop = molecular target: T4, hTIM3-Fc murine FG loop (human, FG loop replaced by mouse TIM-3)
T4 construct: Whole construct: chimeric ECD, linker and human IgG1 Fc; also called hTIM3-Fc FG loop chimera

hTIM3-Fc murine DE loop = molecular target: T5, hTIM3-Fc murine DE loop (human, DE loop replaced by mouse TIM-3)
T5 construct: Whole construct: chimeric ECD, linker and human IgG1 Fc; also called hTIM3-Fc DE loop chimera

[1] = molecular target: T6, hTIM3-Fc murine C′C″ loop (human, C′C″ loop replaced by mouse TIM-3)
T6 construct: Whole construct: chimeric ECD, linker and human IgG1 Fc; also called hTIM3-Fc C′C″ loop chimera

| Binder | Absorbance at 450 nm (hTIM3-Fc WT) [A450] | Absorbance at 450 nm (hTIM3-Fc murine CC′ loop) [A450] | Absorbance at 450 nm (hTIM3-Fc murine BC loop) [A450] | Absorbance at 450 nm (hTIM3-Fc murine FG loop) [A450] | Absorbance at 450 nm (hTIM3-Fc murine DE loop) [A450] | Absorbance at 450 nm [1] [A450] |
| --- | --- | --- | --- | --- | --- | --- |
| B1 | 2.13 | 0.91 | 2.06 | 2.22 |  |  |
| B2 | 1.39 | 0.247 | 1.3 | 1.53 |  |  |
| B3 | 1.39 | 1.39 | 1.83 | 1.9 | 0.855 | 0.338 |
| B4 | 1.57 | 0.502 | 1.44 | 1.74 | 1.01 |  |
| B5 |  |  |  |  | 1.29 |  |
